According to the nanobody polyreactivity screen of Harvey et al. (2022):

Test: yeast display, Sf9 membrane polyspecificity reagent, FACS + sequencing; frameworks hold sequencing errors
Procedure, shortened: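 Nanobodies from a synthetic yeast display library (Saccharomyces cerevisiae BJ5465), induced 36–48 hours with galactose, were stained 1 hour at 4 °C with 10% biotinylated, detergent-solubilized Sf9 membrane reagent, enriched on streptavidin microbeads, then FACS-sorted. Anti-HA (expression) and streptavidin (reagent binding) fluorescence set low and high (top ~1%) gates. Polyreactivity labels come from the gate of origin. Genes were colony-PCR amplified, MiSeq 2 × 250 sequenced and filtered by CDR length.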

Sequence	polyreactivity (PSR sort gate)
QVQLVESGGGLVQAGGSLRLSCAASGSTFNGNVMGWYRQAPGKERELVAGISKSGGTTYYADSVKGRFTISRDNAKNTVYLQMNSLKPEDTAVYYCAARGRVRYYPQYDYWGQGTQVTVSS	high polyreactivity
QVQLVESGGGLVQAGGSLRLSCAASGFTFSDYVMGWYRQAPGKERELVAVITSGSSTYYADSVKGRFTISRDNAKNTVYLQMNSLKPEDTAVYYCNADPDDGYFSDFDYWGQGTQVTVSS	low polyreactivity
QVQLVESGGGLVQAGGSLRLSCAASGRTSSSYAMGWSRQAPGKERELVASITSSGRTYYADSVKGRFTISRDNAKNTVYLQMNSLKPEDTAVYYCAAPFYRVRGWYARTPYGYWGQGTQVTVSS	high polyreactivity
QVQLVESGGGLVQAGGSLRLSCAASGLIFTSYAMGWYRQAPGKERELVAAISYSGGTTFYADSVKGRFTISRDNAKNTVYLQMNSLKPEDTAVYYCAADSLSTTHDTLGYDRDDYWGQGTQVTVSS	low polyreactivity
QVQLVESGGGLVQAGGSLRLSCAASGRTFWPNVMGWYRQAPGKERELVAALTWGDASTYYADSVKGRFTISRDNAKYTVYLQMNSLKPEDTAVYYCAASDYRRTYDYWGQGTQVTVSS	low polyreactivity
QVQLVESGGGLVQAGGSLRLSCAASGFIFADYAMGWYRPAPGKERELVAAISSGGRTKYADSVKGRFTISRDNAKNTVYLQMNSLIPDDTAVYYCAKALRRVPRIQAYPVPQGDYWGHGTQVTVSS	high polyreactivity
QVQLVESGGGLVQAGGSLRLSCAASGSTFTYYAMGWYRQAPGKERELVAAIDFSGTSTYYADSVKGRFTISRDNAKNTVYLQMNRLKPEDTAVYYCAASQSWYWGGAHDNGEFGYWGQGTQVTVSS	low polyreactivity
QVQLVESGGGLVQAGGSLRLSCAASGGTFGSYARGWYRQAPGNEREFVAAIRRGTSTYYADSVQGRFTISRDNAKNTVYLQMNRLKPEDTEVYYCAATPQAHSERYYYQRKYDYWGQGTQVTVSS	low polyreactivity
QVQLVESGGGLVQAGGSLRLSCAASGSIFSYYAMGWYRQAPGKERELVAGISISTGSTYYADSVKGRFTISRDNAKNTVYLQMNSLKPEDNAVYYCAAAQDDGYSQDIYYQLSAYDYWGQGTQVTVSS	low polyreactivity
QVQLVESGGGLVQAGGSLRLSCAASGRTLYINAMGWYRQAPGKERELVAAIRRGGSTYADSVKGRFTISRDNAKNTVYLQMNSLKPEDTAVYYCAADVPRGKYKGDYWGQGTQVTVSS	high polyreactivity
QVQLVESGGGLVQAGGSLRLSCAASGSIFKYYAMGWYRQAPGKERQLVAVITSGGSTYYADSVKGRFTISRDNAKNTVYLQMNSLKPEDTAVYYCAAGVRAYNWGEYDYWGLGTQVTVSS	low polyreactivity
HVQHVESGGGLVQAGGSLRLSCADSGNTFSDNAMGLYRQAPGKVRELVAAISTSGGSTYYADSVKGRFTISRDNAKNTVYLQMNSLNPEDTADYYFAAQFTVLWYEYYYWVQGTQVTVSS	high polyreactivity
QVQHVESGGGLVQAGGSLRLSSAASGITFPVYAMGWYRPTPGKERELVAAITFSGSNTYYADSVKGRFTISRDNAKNTVYLQMNSLKPEDTAVYYCNAETGGVYFNYYYVGEYYYWGQGTQVTVSS	low polyreactivity
QVQLVESGGGLVQAGGSLRLSCAASGNIFHKNAMGWYSQAPGKERELVASISWSGGSTYYADSVKGRFTISRDNAKNTVYLQMKSLKPEDTAVYYCATDAFGYPGNRYALNDYWGQGTQVTVSS	low polyreactivity
QVQLVESGGGLVQAGGSLRLSFAASGFNFEWYTMGWYRQAPGKEMELVADISGDGSTYYAVSVKGRFTISRDNAKNTVYLQMNSLKPEDTAVYYCAASFWGIAMGYWGQGTQVTVSS	high polyreactivity
QVQLVESGGGLVQAGGSLRLSCAASGFTFVSNDMGWYRQAPGKERELVAVITTGDTSTSYADSVKGRFTISRDNAKNTVYLQMNSLKPEDTAVYYCAADPHDTVRHDALVELEYWGQGTQVTVSS	low polyreactivity
QVQLVESGGGLVQAGGSLRLSCAASGSTFYSYGMGWYRPAPGKERELVAAITKRVGRTYYADSVKGRFTISRDNAKNTVYLQMNSLKPEDTAVYYCAARAWTRSVPYGFYYWGQGTQVTVSS	high polyreactivity
QVQLVESGGGLVQAGGSLRLSCAASGNTFYWNAMGWYRQAPGKERELVAAITSSGGSTYYADSVKGRITISRDNAKNTVYLQMNSLKPEDTAVYYCNKDIERYVRIYDSWGQGTQVTVSS	low polyreactivity
QVQLVESGGGLVQAGGSLRLSCAASGAIFSWNAMGWYRQAPGKERELVATITWNGGRTYYADSVKGRFTISRDNAKKTVYLQMNSLKPEATAVYYCAARNTQPASYGYGYWGQGTQVTVSS	high polyreactivity
QVQLVESGGGLVQAGGSLRLSSAASGITFAYYAMGWYRLAPGTVRELVAAISSTGSSTYYADSVKGRFTISRDNAKNTVYLQMNSLKPEDTAVYYCAARVHYRGIVRYDYWGQGTQVTVSS	high polyreactivity
QVQLVESGGGLVQAGGSLRLICAASGSIFVYNAMGWYRQAPGKERELVAAISYSGGRTYYADSVKGRFTISRDNAKNTVYLQMNSLKPEDTAVYYCAARSQRHKLSREYNYWGQGTQVTVSS	high polyreactivity
QVQLVESGGGLVQAGGSLRLSCAASGRIFLVYVMGWYRQAPGKERELVADITFSGGSTYYADSVKGRFTISRDNAKNTVYLQMNSLKPEDTAVYYCAARKPRSGGPFDYWGQGTQVTVSS	high polyreactivity

Sequence	polyreactivity (PSR sort gate)
QVQLVESGGGLVQAGGSLRLSCAASGITFGYNAMGWYIQAPGKERELVASISYSGDSTYYADSVKGRFTISRDNAKNTVYLLMNSLKPEDTAVYYCNVRNRPGGEINDYDYWGQGTQVTVSS	low polyreactivity
QVQLVESGGGIVQAGGSLRLSCAASGRIFYINAMGWYRQSPGKERELVAAITGSGGRTYYADSVKGRFTISRDNAKNTVYLHINSLKPEDTAVYYCAAQKKHYSYSYWYDSLGQGTQVTVSS	high polyreactivity
QVQLVESGGGLVQAGGSLRLICAASGYIFRPNAMGWYRQAPGKERELVASISSGGSTYYADSVKGRFTISRDNAKNTVYLQMNSLKPEDTAVYYCNARHYPWFAAYGSYAYEYWGQGTQVTVSS	low polyreactivity
QVQLVESGGGLVQAGGSLRLSCAASGLTFEYYTMGWYRQAPGKERELVAAITSSGGSTYYADSVKGRFTISRDNAKNTVYLQMNSLKPEDTAVYYCAADYYTWYGILYDYWGQGTQVTVSS	low polyreactivity
QVQLVESGGGLVQAGGCLRLSCAASGSTLDSNAMGWYREAPGKERELVAGIDWCGGSTYADSVKGRFTISRDNAKNTVELQMTSLKPEDTAVYYCAKVSRYVQPYSRFDYWGQGTQVTVSS	low polyreactivity
QVQLVESGGGLVQAGGSLRLSCAASGSTVGYYDMGWYRQAPGKERELVATITKSGGTTRYADSVKGRFTISRDNAKNTVYLQMNSLKPEDTAVYYCAADGTWRLLDDYWGQGTQVTVSS	low polyreactivity
QVQLVESGGGLVQAGGSLRLICAASGLTFRYYAMGWYRQAPGKERELVAAITRGGSTYYADSVKGRFTISRDNAKNTVYLQMNSLKPEDTAVYYCAAYDVRYNTYDYDYWGQGTQVTVSS	high polyreactivity
QVQLVESGGGLVQAGGSLRLSCAASGSIFVYNAMGWYRQAPGKERELVAAISQRGGSTYYADSVKGRFTISRDNAKNTVYLQMNSLKPEDTADYYCAAGPGDSGDDYWGQGTQVTVSS	low polyreactivity
QVQLVESGGGLVQAGGSLRLSSAASGRTIDGNAMVWYRQAPGKEREWVATITRGGSTYYADSVKGRFTISRDNAKNTVYLQMNSLKPEDTSVYYCAARYYGRSQHHFDYWGQGTQVTVSS	high polyreactivity
QVQLVESGGGLVQAGGSLRLSCAASGFTISYYAMGWYRQAPWKEGELVAAIRKSGATTDYADSVKGRFTISRDNAKNTVYLQMNCMKPEDTAVYYCNAKNDQRSLGFDFWRQGTQVTVSS	high polyreactivity
QVQLVESGGGLVQAGGSLRLSCAASGSIIRWNAMGWYRQAPGKERELVAAISYSGGSTYYADSVKGRFTISRDNAKNTVYLQMNSLKPEDTAVYYCAKEYIVGFYLVFNRFDYWGQGTQVTVSS	low polyreactivity
QVQLVESGGGLVQAGGSLRLSCAASGFIFVFNTMGWYRQAPGKERELVAAISVSGDSTYADSVKGRFTISRDNAKNTVYLQMNSLKPEDTAVYYCNAGSTELGWTWELDYWGQGTQVNVSS	high polyreactivity
QVQLVESGGGLVQAGGSLRLSCAASGRIFGDNAMGWYRQAPGKERELVADITSSGGSTHYADSVKGRFTISRDNAKNNVYLQLNSLKPEDTEVYYCNADDYVYFDDGDYWGQGTQVTVSS	low polyreactivity
QVQLVESGGGLVQAGGSLRLRCAASGRIFVENAMGWYRQAPGKERELVATISSGDSTNYADSVKGRFTISRDNAKNTVYLQMNSLKPEDTAVYYCDAADGIIESDYWGQGTQVTVSS	low polyreactivity
QVQLVESGGGLVQAGGSLRLSCAASGSIFGVYAMGWYRQAPGKERELVAAIDSGGDTYYADSVKGRFTISRDNAKNTVYLQMNSLKPEDTAVYYCNAPYNRATYNYWGQGTQVTVSS	high polyreactivity
QVQLVESGGGLVQAGGSLRLSCAASGRTFASYAMGWYRQAPGKERELVAVISRGGSNTNYADSVKGRFTISRDNAKNTVYLQLNSLKPEDTAVYYCADLAFKRYNPGGYDYWGQGTQVTVSS	high polyreactivity
QVQLVESGGGLVQAGGSLRLSCAASGSIFDLNAMGWYRQAPGKERELVAAISSGGGTYYADSVKGRFTISRDNAKNTVYLKMNSLKPEDTAVYYCKRVTRWTYNYWGQGTQVSVSS	high polyreactivity
QEQLQESGGGLVQAGGSLRMSCAASGTIFSEANKGWYRQAPGKERELVATIGQGSTTNYADSVKGRFTISRDNAKNTVYLQMNSLKPEETAVYYCAVVTVDPVGFVYWGQGTQVTVSS	low polyreactivity
QVQLLESGGGLVQARGSLRLSCAASARTIFKNAMAWYRQAPGKERELVARISWNGGDSTYYADSVTGRFTISRDNAKNTVYLQMNSLKPEDTAVYSCAADTSYRPGGSRQGYGYWGQGTQVTVSS	low polyreactivity
QVQLVESGGGLVQAGGSLRLSCAASGFTFTLYAMGWYRQAPGKERELVAAISWNGSTYYADSVKGRFTISRDNAKNTVYLQMNSLKPEDTAVYYCNADVWISYNNAYVTLDYWGQGTQVTVSS	high polyreactivity
QVQLVVSGGGLVQAGGSLRLSGAASGSIFWVYAMGWSRQAPGKELELVAAINWRGGSTYYADSVKGRFTISRDNAKNTVYLQKNSLKPEDTAVYNCAVQPNYYGMGYWGQGTQVTVSS	high polyreactivity
